According to patent US20220048993A1 (published 2022):
Substitutions are numbered along the chain they refer to. Names may count otherwise. Blank lines part the entries; values can stand above or below the binder they belong to.

Columns and labels:
[1] = molecular target: T1, recombinant cynomolgus E11 protein (cynomolgus monkey); test: SPR, mIgG2a captured, monovalent
T1 chain: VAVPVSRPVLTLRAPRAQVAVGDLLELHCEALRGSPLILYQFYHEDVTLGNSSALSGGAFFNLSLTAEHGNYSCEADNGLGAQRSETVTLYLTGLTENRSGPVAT

[2] = molecular target: T1, recombinant cynomolgus E11 protein; test: SPR, mIgG2a captured, monovalent
[3] = molecular target: T2, soluble cynomolgus FcRH5 protein fragment (cynomolgus monkey); test: SPR, hIgG capture, 1:1 model
T2 chain: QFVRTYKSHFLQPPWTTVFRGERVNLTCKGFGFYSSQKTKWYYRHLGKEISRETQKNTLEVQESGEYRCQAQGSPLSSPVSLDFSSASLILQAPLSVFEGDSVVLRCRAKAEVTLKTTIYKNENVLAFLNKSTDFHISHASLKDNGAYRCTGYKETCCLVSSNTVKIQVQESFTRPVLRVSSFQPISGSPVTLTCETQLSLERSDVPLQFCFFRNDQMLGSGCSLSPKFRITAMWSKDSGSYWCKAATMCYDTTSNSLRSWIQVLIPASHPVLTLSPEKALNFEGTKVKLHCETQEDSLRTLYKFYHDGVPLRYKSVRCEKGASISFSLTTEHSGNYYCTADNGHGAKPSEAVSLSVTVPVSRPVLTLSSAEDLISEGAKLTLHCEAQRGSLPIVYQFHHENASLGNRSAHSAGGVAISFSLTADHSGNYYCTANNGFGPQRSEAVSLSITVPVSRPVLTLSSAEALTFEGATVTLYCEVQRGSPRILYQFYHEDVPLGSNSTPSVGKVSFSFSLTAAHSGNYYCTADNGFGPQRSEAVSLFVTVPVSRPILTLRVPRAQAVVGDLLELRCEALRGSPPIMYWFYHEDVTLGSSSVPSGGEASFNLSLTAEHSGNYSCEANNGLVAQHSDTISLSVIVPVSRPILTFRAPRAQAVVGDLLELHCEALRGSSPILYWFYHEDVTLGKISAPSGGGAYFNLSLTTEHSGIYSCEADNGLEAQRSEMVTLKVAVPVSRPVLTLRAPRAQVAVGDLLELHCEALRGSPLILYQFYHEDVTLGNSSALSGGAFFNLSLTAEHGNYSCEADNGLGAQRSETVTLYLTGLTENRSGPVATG

[4] = molecular target: T3, cynomolgus monkey FcRH5, full-length (cynomolgus monkey); test: FACS, SVT2 cells, TDB 3 µg/ml
T3 construct: also called cyno FcRH5; Cynomolgus FcRH5
T3 chain: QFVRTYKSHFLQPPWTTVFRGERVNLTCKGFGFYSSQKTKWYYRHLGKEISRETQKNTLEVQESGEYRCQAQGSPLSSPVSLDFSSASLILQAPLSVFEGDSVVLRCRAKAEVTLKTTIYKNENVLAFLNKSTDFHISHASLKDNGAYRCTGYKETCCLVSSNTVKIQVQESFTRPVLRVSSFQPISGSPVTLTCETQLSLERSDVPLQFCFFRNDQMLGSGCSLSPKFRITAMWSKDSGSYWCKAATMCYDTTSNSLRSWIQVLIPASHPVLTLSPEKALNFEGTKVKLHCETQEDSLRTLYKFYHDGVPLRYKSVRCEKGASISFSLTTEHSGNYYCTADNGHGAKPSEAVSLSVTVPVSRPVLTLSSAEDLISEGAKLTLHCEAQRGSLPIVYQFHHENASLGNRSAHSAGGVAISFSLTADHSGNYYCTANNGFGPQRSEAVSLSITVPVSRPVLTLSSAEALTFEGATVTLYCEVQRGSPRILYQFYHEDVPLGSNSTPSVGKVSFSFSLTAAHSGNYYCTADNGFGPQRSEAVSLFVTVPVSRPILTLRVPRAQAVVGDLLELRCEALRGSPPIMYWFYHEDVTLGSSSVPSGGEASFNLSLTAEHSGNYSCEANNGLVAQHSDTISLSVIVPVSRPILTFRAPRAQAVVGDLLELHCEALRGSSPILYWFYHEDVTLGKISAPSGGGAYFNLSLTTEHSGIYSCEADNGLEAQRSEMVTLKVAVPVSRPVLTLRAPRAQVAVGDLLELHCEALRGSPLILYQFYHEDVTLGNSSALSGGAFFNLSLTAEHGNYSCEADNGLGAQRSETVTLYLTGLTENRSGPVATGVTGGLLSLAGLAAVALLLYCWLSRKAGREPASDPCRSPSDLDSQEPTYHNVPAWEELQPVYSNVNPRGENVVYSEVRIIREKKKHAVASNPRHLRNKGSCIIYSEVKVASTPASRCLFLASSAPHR
Procedure: Human FcRH5, cyno FcRH5, human FcRH1, FcRH2, FcRH3, and FcRH4 transfected mouse SVT2 cells were used to test binding and cross-reactivity of FcRH5 TDBs. The method was carried out as follows. Cultured SVT2 cells were lifted using non-enzyme cell dissociation buffer (Sigma, #C5914). 1×10⁵ cells were suspended in 100 μL and incubated with FcRH5 TDBs at 3 μg/ml. Cells were then washed with FACS buffer (PBS, 1% BSA, 2 mM EDTA) and incubated with goat-anti-human Fc PE (Jackson Immunoresearch, #109-116-170) at a 1:100 dilution. Cells were washed twice with FACS buffer before flow cytometry analysis was carried out on a FACSCalibur.

[5] = molecular target: T4, human FcRH5, full-length (human, UniProt Q96RD9 16-977); test: cell-based or functional assay
T4 sequence: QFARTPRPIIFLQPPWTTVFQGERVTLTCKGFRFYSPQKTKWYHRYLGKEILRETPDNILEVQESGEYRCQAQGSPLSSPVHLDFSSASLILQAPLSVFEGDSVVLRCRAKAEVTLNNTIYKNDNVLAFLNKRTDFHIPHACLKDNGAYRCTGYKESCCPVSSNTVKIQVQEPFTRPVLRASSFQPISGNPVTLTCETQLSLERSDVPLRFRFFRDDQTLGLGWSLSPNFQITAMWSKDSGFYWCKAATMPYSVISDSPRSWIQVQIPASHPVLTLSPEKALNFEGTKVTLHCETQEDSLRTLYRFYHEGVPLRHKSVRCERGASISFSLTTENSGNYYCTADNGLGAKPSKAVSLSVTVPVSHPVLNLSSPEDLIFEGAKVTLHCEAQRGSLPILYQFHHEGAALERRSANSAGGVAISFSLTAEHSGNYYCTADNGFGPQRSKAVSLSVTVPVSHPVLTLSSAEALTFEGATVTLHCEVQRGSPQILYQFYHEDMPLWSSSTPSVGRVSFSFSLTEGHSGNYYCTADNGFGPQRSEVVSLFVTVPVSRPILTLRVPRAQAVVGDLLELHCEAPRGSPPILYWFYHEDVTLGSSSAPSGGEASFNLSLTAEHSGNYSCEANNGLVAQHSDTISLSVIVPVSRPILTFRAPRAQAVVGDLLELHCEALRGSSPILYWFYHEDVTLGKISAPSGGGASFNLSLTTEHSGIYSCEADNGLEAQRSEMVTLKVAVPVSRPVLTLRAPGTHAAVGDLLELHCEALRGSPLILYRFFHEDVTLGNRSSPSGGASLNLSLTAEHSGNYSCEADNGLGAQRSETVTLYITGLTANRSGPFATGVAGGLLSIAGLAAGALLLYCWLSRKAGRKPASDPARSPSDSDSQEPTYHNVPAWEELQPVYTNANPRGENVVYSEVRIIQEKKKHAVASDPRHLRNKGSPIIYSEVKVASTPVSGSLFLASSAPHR

[6] = molecular target: T2, soluble cynomolgus FcRH5 protein …; test: BIACORE (FIG. 15)
[7] = molecular target: T2, soluble cynomolgus FcRH5 protein …; test: BIACORE, hIgG capture, 1:1 model, monovalent
[8] = molecular target: T3, cynomolgus monkey FcRH5, full-length; test: flow cytometry, SVT2-cyno FcRH5 cells

Kd [3]: 7.2 nM
koff [3]: 0.001 s⁻¹
kon [3]: 100000 M⁻¹ s⁻¹
B4: hu1G7.v85 (hIgG1) (antibody, V domains shown)
VH: EVQLVESGPGLVKPSETLSLTCTVSGFSLTRFGVHWVRQPPGKGLEWLGVIWRGGSTDYNAAFVSRLTISKDNSKNQVSLKLSSVTAADTAVYYCSNHYYGSSDYALDNWGQGTLVTVSS
VL: DIQMTQSPSSLSASVGDRVTITCKASQDVRNLVVWFQQKPGKAPKLLIYSGSYRYSGVPSRFSGSGSGTDFTLTISSLQPEDFATYYCQQHYSPPYTFGQGTKVEIK
notes: bivalent human IgG1; also called hu1G7.v1.4.M64V

Kd [3]: 6.8 nM
koff [3]: 0.0008 s⁻¹
kon [3]: 100000 M⁻¹ s⁻¹
Kd [6]: 7.8 nM
Kd [7]: 6.76 nM
binding result [8]: binds
B5: 1G7.v85/38E4.v1 TDB (bispecific antibody, V domains shown)
VH 1: B4 VH
VL 1: B4 VL
VH 2: EVQLVQSGAEVKKPGASVKVSCKASGFTFTSYYIHWVRQAPGQGLEWIGWIYPENDNTKYNEKFKDRVTITADTSTSTAYLELSSLRSEDTAVYYCARDGYSRYYFDYWGQGTLVTVSS
VL 2: DIVMTQSPDSLAVSLGERATINCKSSQSLLNSRTRKNYLAWYQQKPGQSPKLLIYWTSTRKSGVPDRFSGSGSGTDFTLTISSLQAEDVAVYYCKQSFILRTFGQGTKVEIK
notes: knob-into-hole full-length TDB; also called 1G7.v85 TDB; FcRH5 TDB
killing of MOLP-2 cells, EC50 [5]: 0.058 nM
killing of SVT2-FcRH5 cells, IC50, in DMSO [5]: 0.006 nM
killing of SVT2-FcRH5 cells, IC50, in buffer [5]: 0.007 nM
killing of SVT2-FcRH5 cells, IC50, with 0.1 µM dexamethasone [5]: 0.016 nM
killing of SVT2-FcRH5 cells, IC50, with 1 µM dexamethasone [5]: 0.025 nM
killing of human bone marrow plasma cells, EC50 [5]: 0.085 to 0.18 nM

Kd [3]: 7.7 nM
koff [3]: 0.001 s⁻¹
kon [3]: 100000 M⁻¹ s⁻¹
B6: hu1G7.v1.4 (hIgG1) (antibody, V domains shown)
VH: B4 VH with V64M
VL: B4 VL
notes: human IgG1

Kd [6]: 8.1 nM
B7: hu1G7.v93/38E4.v1 TDB (bispecific antibody, V domains shown)
VH 1: B4 VH with L29T, S103P
VL 1: B4 VL with R30S
VH 2: B5 VH 2
VL 2: B5 VL 2
notes: knob-into-hole full-length TDB; also called 1G7.v93 TDB

The next lines start with the binder.

B1: 17B1 (antibody, mouse IgG2a, V domains shown)
VH: QVQLQQSGPELVRPGVSVKISCKGSGYTFTHYAMHWVKQSHTKSLEWIGMISSSSGNTNFNQKFMDKATMTVDKSSTTAYLELARLTFGDSAIYYCARWSYYALFDYWGQGTTVTVSS
VL: ENVLTQSPAIMSASPGEKVTMTCSADSSVDYIHWYQQKSNTSPKLWIYDTSKLASGVPGRFSGSGSGNSYSLTISSMEAEDFATYYCFQGSGYPLTFGSGTKLELK
notes: mouse mAb, Campaign C; recombinant murine IgG2a for BIACORE
Kd [1]: 27 nM

B2: 15G8 (antibody, mouse IgG2a, V domains shown)
VH: EVQLQQSGPELVKPGASVKMSCKASGYTFTNYVIHWMKQKPGQGLEWIGYISPYNDYTKYNEKFEGKATLTSDKSSNTAYMELSSLTSEDSAVYYCARRDYYGSSDYWGQGTTLTVSS
VL: QIVLTQSPAIMSASPGEKVTMTCSASSSVDYMHWYQQKSGTSPKKWIYDTSKLASGVPARFSGSGSGTSYSLTIGSMEAEDAATYYCQQWSSNPPTFGGGTKLEIK
notes: mouse mAb, Campaign C; recombinant murine IgG2a for BIACORE; also called mAb 15G8
Kd [1]: 9.1 nM
KD difference between human and cynomolgus E11 domains [2]: ~20 fold

B3: 1G7.v1.4/38E4.v1 TDB (bispecific antibody, V domains shown)
VH 1: B4 VH with V64M
VL 1: B4 VL
VH 2: B5 VH 2
VL 2: B5 VL 2
notes: knob-into-hole full-length TDB; also called 1G7.v1.4 TDB
Kd [3]: 6.3 nM
koff [3]: 0.0008 s⁻¹
kon [3]: 100000 M⁻¹ s⁻¹
binding result [4]: binds
